Experimental data: publication PMC10876425

Assays:
[1] = molecular target: Light-harvesting 2 (LH2) complex from Rhodobacter sphaeroides (Rhodobacter sphaeroides); experiment: FRET or BRET; fluorescence lifetime microscopy (TCSPC) of LH2 emission at 857 ± 3 nm after excitation at 485 nm; intact DOPC proteoliposomes (LH2 only, 2:1, 1:1, 0.5:1 LH2:RC-LH1); E = 1 - τDA/τD; values are averages for the whole system
[2] = molecular target: Reaction-centre light-harvesting 1 (RC-LH1) complex from Rhodobacter sphaeroides, carotenoid-less (from the ΔcrtB strain) (Rhodobacter sphaeroides) (UniProt P0C0Y8); experiment: as above

LH2 fluorescence lifetime in LH2-only proteoliposomes [1]: 0.72 ns | LH2 fluorescence lifetime in proteoliposomes (0.5:1 LH2:RC-LH1) [2]: 0.37 ns | LH2 fluorescence lifetime in proteoliposomes (1:1 LH2:RC-LH1) [2]: 0.35 ns | LH2 fluorescence lifetime in proteoliposomes (2:1 LH2:RC-LH1) [2]: 0.43 ns | LH2→RC-LH1 energy transfer efficiency (0.5:1 LH2:RC-LH1) [2]: 49% | LH2→RC-LH1 energy transfer efficiency (1:1 LH2:RC-LH1) [2]: 51% | LH2→RC-LH1 energy transfer efficiency (2:1 LH2:RC-LH1) [2]: 40%
Substance: Light-harvesting 2 (LH2) complex from Rhodobacter sphaeroides
